# Results from patent publication US20170029484A1 (published 2017).
# Where no end group is shown, it is not given here. [ ]: non-standard residue; d: D form. pS = N[C@@H](COP(=O)(O)O)C(=O)O
# B1: IRS-2A (TCR, V domains shown)
# Valpha: AQSVTQPDARVTVSEGASLQLRCKYSYSGTPYLFWYVQYPRQGLQLLLKYYSGDPVVQGVNGFEAEFIKSNSSFHLRKASVHWSDSAVYFCAVSEGADRLTFGKGTQLIIQP
# Vbeta: EAGVTQSPRYAVLQEGQAVSFWCDPISGHDTLYWYQQPRDQGPQLLVYFRDEAVIDNSQLPSDRFSAVRPKGTNSTLKIQSAKQGDTATYLCASSLLDSSYEQYFGPGTRLTVL
# B2: the CDC25b TCR (TCR, V domains shown)
# Valpha: GEQVEQRPPHLSVREGDSAVIICTYTDPNSYYFFWYKQEPGAGLQLLMKVFSSTEINEGQGFTVLLNKKDQQLSLNLTAAHPGDSAVYFCAVKPGGYKVVFGSGTRLLVSP
# Vbeta: EAAVTQSPRNKVAVTGGKVTLSCNQTNNHNNMYWYRQDTGHGLRLIHYSYGAGSTEKGDIPDGYKASRPSQENFSLILELATPSQTSVYFCASGGDTQYFGPGTRLLVL
# B3: DESA (TCR, V domains shown)
# Valpha: AQSVTQPDARATVSEGASLRLRCKYSYSGTPYLFWYVQYPRQGLQLLLKYYSGDPVVQGVNGFEAEFSKSNSSFHLRKASVHWSDSAVYFCVLSYSNNRIFFGDGTQLVMKP
# Vbeta: DSGVVQSPRHIIKEKGGRSVLTCIPISGHSNVVWYQQTLGKELKFLIQHYEKVERDKGFLPSRFSVQQFDDYHSEMNMSALELEDSAMYFCASSLGGGEVFFGKGTRLTVV
# B4: IRS-2B (TCR, V domains shown)
# Valpha: AQSVTQPDARVTVSEGASLQLRCKYSYSGTPYLFWYVQYPRQGLQLLLKYYSGDPVVQGVNGFEAEFIKSNSSFHLRKASVHWSDSAVYFCAVSAGSGGKLTLGAGTRLQVNL
# Vbeta: EAAVTQSPRSKVAVTGGKVTLSCHQANNHDYMYWYRQDTGHGLRLIHYSYVADSTEKGDIPDGYKASRPSQENFSLILELASLSQTAVYFCASSDRDNYAEQFFGPGTRLTVL
# B5: DESB (TCR, V domains shown)
# Valpha: AQSVTQPDARVTVSEGASLQLRCKYSYSGTPYLFWYAQYPRQGLQLLLKYYSGDPVVQGVNGFEAEFSKSNSSFHLRKASVHWSDSAVYFCVLRYGGNNKLTFGQGTVLSVIP
# Vbeta: EAAVTQSPRSKVAVTGGKVTLSCHQTNNHDYMYWYRQDTGHGLRLIHYSYVADSTEKGDIPDGYKASRPSQENFSLILELASLSQTAVYFCASRYRDTQYFGPGTRLLVL
# B6: βCATA (TCR, V domains shown)
# Valpha: GQQVQQSPASLVLQEGENAELQCNFSSTATRLQWFYQHPGGRLVSLFYNPSGTKHTGRLTSTTVTNERRSSLHISSSQTTDSGTYFCAIPPGTGSKLSFGKGAKLTVSP
# Vbeta: NTKITQSPRYLILGRANKSLECEQHLGHNAMYWYKQSAEKPPELMFLYNLKQLIRNETVPSRFIPECPDSSKLLLHISAVDPEDSAVYFCASSQGQKQYFGPGTRLTVL
# What was measured:
# [1] = target: T1, CDC25b (M-phase inducer phosphatase 2) peptide on HLA-A*02:01 (human); experiment: killing
# T1 peptide: GLLG[pS]PVRA
# [2] = target: T2, insulin receptor substrate 2 (IRS-2) peptide on HLA-A*02:01 (human); experiment: killing
# T2 peptide: RVA[pS]PTSGV
# [3] = target: T3, β-catenin peptide on HLA-A*02:01 (human); experiment: killing
# T3 peptide: YLD[pS]GIHSGA
# [4] = target: T4, desmuslin/synemin peptide on HLA-A*02:01 (human); experiment: cytokine release
# T4 peptide: RTF[pS]PTYGL
# [5] = target: T2, insulin receptor substrate 2 (IRS-2) …; experiment: cytokine release
# [6] = target: T3, β-catenin peptide on HLA-A*02:01; experiment: cytokine release
binder,measurement,setting,value
B1,binding result,[1],no recognition
B2,binding result,[2],no recognition
same,binding result,[3],no recognition
B3,binding result,[4],recognises
B4,binding result,[5],recognises
B5,binding result,[4],recognises
B6,binding result,[6],recognises
